Source: paper PMC2905062

Molecular target: Axl receptor tyrosine kinase, wildtype (human)
Assay: co-IP

Substance: endogenous growth factor receptor-bound protein 2 (Grb2) of COS7 cells (natural protein)
- fold Grb2 co-IP'ed with Axl, rhGas6 stimulation against no stimulation: 2 fold
